Laboratory results as given in publication PMC9579014 (2022).

T1: legumain AEP catalytic domain (Homo sapiens, UniProt Q99538)
T1 chain: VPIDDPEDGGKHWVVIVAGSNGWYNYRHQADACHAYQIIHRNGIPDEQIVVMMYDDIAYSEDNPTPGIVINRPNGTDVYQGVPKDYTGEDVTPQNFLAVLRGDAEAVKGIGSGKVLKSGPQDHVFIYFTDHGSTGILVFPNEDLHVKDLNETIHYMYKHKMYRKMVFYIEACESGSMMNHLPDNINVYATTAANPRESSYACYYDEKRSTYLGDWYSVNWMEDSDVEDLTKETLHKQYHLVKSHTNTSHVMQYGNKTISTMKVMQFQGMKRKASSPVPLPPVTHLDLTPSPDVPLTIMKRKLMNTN


Molecular target: legumain (Homo sapiens) (UniProt Q99538)
Assay: not given
Conditions: cited from earlier work

Clitocypin, sequence (Q9P4A2 whole entry): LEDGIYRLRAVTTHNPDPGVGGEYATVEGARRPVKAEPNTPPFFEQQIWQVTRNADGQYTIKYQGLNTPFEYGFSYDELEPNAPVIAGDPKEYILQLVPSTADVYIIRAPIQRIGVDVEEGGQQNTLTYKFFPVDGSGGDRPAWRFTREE

Molecule | Ki [nM]
Clitocypin (from UniProt Q9P4A2) | 21.5

Molecular target: T1, legumain AEP catalytic domain
Assay: enzyme inhibition assay (AAN-AMC)
Conditions: not given

Molecule | Ki [nM]
clitocypin 2 (protein) MASLEDGIYRLRAVTTHNPDPGVGGEYATVEGARRPVKAEPNTPPFFAAQAWQVTRNADGQYTIKYQGLNTPFEYGFSYDELEPNAPVIAGDPKEYILQLVPSTADVYIIRAPIQRIGVDVEVGVQGNTLVYKFFPVDGSGGDRPAWRFTRE | 6690
macrocypin 1a (protein) GFEDGFYTILHLAEGQHPNSKIPGGMYASSKDGKDVPVTAEPLGPQSKIRWWIARDPQAGDDMYTITEFRIDNSIPGQWSRSPVETEVPVYLYDAIKAEETGYTCAWRIQPADHGADGVYHIVGNVRIGSTDWADLREEYGEPQVYMKPVPVIPNVYIPRWFILGYEE | 183

Other lines, results leading:

Ki [nM] | Molecule
79 | clitocypin 2 (protein) MASLEDGIYRLRAVTTHNPDPGVGGEYATVEGARRPVKAEPNTPPFFEQQIWQVTRNADGQYTIKYQGLNTPFEYGFSYDELEPNAPVIAGDPKEYILQLVPSTADVYIIRAPIQRIGVDVEVGVQGNTLVYKFFPVDGSGGDRPAWRFTRE
147 | macrocypin 1a (protein) GFEDGFYTILHLAEGQHPNSKIPGGMYASSKDGKDVPVTAEPLGPQSKIRWWIARDPQAGDDMYTITEFEIDNSIPGQWSRSPVETEVPVYLYDRIKAEETGYTCAWRIQPADHGADGVYHIVGNVRIGSTDWADLREEYGEPQVYMKPVPVIPNVYIPRWFILGYEE
2.18 | macrocypin 1a (protein) GFEDGFYTILHLAEGQHPNSKIPGGMYASSKDGKDVPVTAEPLGPQSKIRWWIARDPQAGDDMYTITEFRIDNSIPGQWSRSPVETEVPVYLYDRIKAEETGYTCAWRIQPADHGADGVYHIVGNVRIGSTDWADLREEYGEPQVYMKPVPVIPNVYIPRWFILGYEE
